Measured values from paper PMC6765112, “Specificity of MYB interactions relies on motifs in ordered and disordered contexts” (Nucleic Acids Research, 2019).
Numbering of substitutions follows the chain as printed. Names and notes keep the numbering of the source. “Also recorded” adds a separate entry of the source. Ends that are not written are not given here. Peptide text beside a SMILES is read from it. * marks the point of attachment. Biotin = O=C1N[C@H]2[C@H](CS[C@H]2CCCCC(=O)*)N1

T1: MYC4 N-terminal domain (L55-N253; MYC4Nt) (Arabidopsis thaliana, UniProt O49687)
T1 construct: MYC4 N-terminal domain (L55-N253; MYC4Nt) using a C-terminal 6×His tag; made in house; host or cells: Escherichia coli BL21(DE3), pET52u plasmid
T1 sequence (O49687 55-253): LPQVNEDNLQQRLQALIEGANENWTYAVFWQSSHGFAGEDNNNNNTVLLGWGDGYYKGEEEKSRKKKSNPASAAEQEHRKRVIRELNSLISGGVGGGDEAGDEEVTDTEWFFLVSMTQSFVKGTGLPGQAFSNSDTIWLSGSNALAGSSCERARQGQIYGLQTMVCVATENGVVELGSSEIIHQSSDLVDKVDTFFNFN

B1: MYB75: full-length MYB75 (MYB subgroup 6), control prey for GL3 (protein)
chain: MEGSSKGLRKGAWTTEEDSLLRQCINKYGEGKWHQVPVRAGLNRCRKSCRLRWLNYLKPSIKRGKLSSDEVDLLLRLHRLLGNRWSLIAGRLPGRTANDVKNYWNTHLSKKHEPCCKIKMKKRDITPIPTTPALKNNVYKPRPRSFTVNNDCNHLNAPPKVDVNPPCLGLNINNVCDNSIIYNKDKKKDQLVNNLIDGDNMWLEKFLEESQEVDILVPEATTTEKGDTLAFDVDQLWSLFDGETVKFD
modifications: left off: NubG and FRB (from the vector pFRB), end not stated, kept
notes: full-length MYB75 (MYB subgroup 6), control prey for GL3
B2: L190A: mutated MYB29 (AAs 120-222); MIM sequence - S TS KL ANK VA ARA SS - (protein)
chain: GIDPVTHKPLAYDSNPDEQSQSGSISPKSLPPSSSKNVPEITSSDETPKYDASLSSKKRCFKRSSSTSKLANKVAARASSMGTILGASIEGTLISSTPLSSCL
modifications: left off: NubG and FRB (from the vector pFRB), end not stated, kept
B3: A194L: mutated MYB29 (AAs 120-222); MIM sequence - S TS KL LNK VL ARA SS - (protein)
chain: B2 chain with A71L, A75L
modifications: left off: NubG and FRB (from the vector pFRB), end not stated, kept
B4: N191A: mutated MYB29 (AAs 120-222); MIM sequence - S TS KL LAK VA ARA SS - (protein)
chain: B2 chain with A71L, N72A
modifications: left off: NubG and FRB (from the vector pFRB), end not stated, kept
B5: A194G: mutated MYB29 (AAs 120-222); MIM sequence - S TS KL LNK VG A RA SS - (protein)
chain: B2 chain with A71L, A75G
modifications: left off: NubG and FRB (from the vector pFRB), end not stated, kept
B6: WT: MYB29 (AAs 120-222); MIM sequence - S TS KL LNK VA ARA SS - (protein)
chain: MSRKPCCVGEGLKKGAWTAEEDKKLISYIHEHGEGGWRDIPQKAGLKRCGKSCRLRWANYLKPDIKRGEFSYEEEQIIIMLHASRGNKWSVIARHLPKRTDNEIKNYWNTHLKKLLIDKGIDPVTHKPLAYDSNPDEQSQSGSISPKSLPPSSSKNVPEITSSDETPKYDASLSSKKRCFKRSSSTSKLLNKVAARASSMGTILGASIEGTLISSTPLSSCLNDDFSETSQFQMEEFDPFYQSSEHIIDHMKEDISINNSEYDFSQFLEQFSNNEGEEADNTGGGYNQDLLMSDVSSTSVDEDEMMQNITGWSNYLLDHSDFNYDTSQDYDDKNFI
modifications: left off: NubG and FRB (from the vector pFRB), end not stated, kept

What was measured:
[1] = biological target: T1, MYC4 N-terminal domain (L55-N253; MYC4Nt); assay: Bio-layer interferometry, binding of MYC4Nt to immobilised biotinylated MIM peptides; conditions: for binding of MYC4Nt to immobilised peptide (in words): BLI, peptide immobilised on streptavidin biosensor, MYC4Nt dilution series
Description: Single colonies of freshly transformed Escherichia coli BL21(DE3), carrying the pET52u plasmid for expressing MYC4 N-terminal domain (AA55-253; MYC4Nt) with a C-terminal 6×His tag, were inoculated in LB with ampicillin and grown overnight (37°C, 200 RPM). The next day, the culture was diluted to OD600 = 0.2 with cold (4°C) LB with ampicillin and grown at 18°C (100 RPM) in a baffled Erlenmeyer flask until OD600 = 1.0 (∼7.5 h). Protein expression was induced by addition of 0.1 mM IPTG, and the cultures grew for further 18 h at 18°C (100 RPM), before harvesting the cells by centrifugation (4000 g, 20 min), and storing the bacterial pellet at −20°C until protein extraction and purification. For extraction and purification, the bacterial pellet was resuspended in BugBuster Master Mix (Merck Millipore), 2.5 ml per 50 ml bacterial culture, containing 1× ethylenediaminetetraacetic acid-free complete protease inhibitor cocktail (Roche) and 1 mM dithiothreitol (DTT). Lysis proceeded by slow end-over-end rotation at room temperature for 30 min, and the lysate was cleared by centrifugation (20.000 g, 20 min, 4°C). The supernatant was diluted five times with His binding buffer (20 mM sodium phosphate, 500 mM NaCl, 40 mM imidazole, 1 mM DTT, pH 7.4) and filtered through a 0.2-micron filter using a syringe, before applying to a HisTrap HP 5 ml (GE Healthcare) IMAC column charged with Ni(II)Cl2. After washing thoroughly, bound protein was eluted with a linear buffer gradient to elution buffer (His binding buffer with 500 mM imidazole) over 20 column volumes, and 1.9 ml fractions collected in a 96-deepwell plate. Based on absorbance at 280 nm during elution, fractions were selected for analysis by sodium dodecyl sulphate-polyacrylamide gel electrophoresis and those fractions showing only the band of the recombinant protein at 22.7 kDa were pooled and concentrated using 3-kDa cut-off PES membrane ultrafiltration centrifugal tubes (Thermo Scientific™ Pierce). Concentrated protein was centrifuged at 20 000 g, 4°C for 10 min before being dialysed overnight to PBS pH 7.4 with 1 mM DTT. Protein concentration was estimated using the Lambert–Beer law based on absorbance at 280 nm, after blanking with the dialysis buffer (dialysate) and protein was stored in aliquots at −80°C. Aliquots of dialysate were stored at −20°C.
Biotinylated peptides were synthesized by TAG Copenhagen A/S (Copenhagen, Denmark). Lyophilized peptide was resuspended in H2O to a concentration of 400–500 μM and stored in aliquots at −80°C. […] Binding was measured with a BLItz Bio-Layer Interferometer (Pall ForteBio) using the advanced kinetics program in the BLItz Pro 1.2 software. […]

[2] = system: GL3; assay: Split-ubiquitin assay, GL3 as bait; type: cell-based, Arabidopsis thaliana; conditions: yeast, SD-AHLW growth
Description: (§1) The rapamycin-compatible yeast strain NMY51 TOR1-1 Δfpr1 ([35]) was transformed according to DUALhunter™ kit instructions (Dualsystems biotech). Briefly, overnight 2×YPAD cultures were diluted to OD600 = 0.2, and incubated at 30°C, 150 RPM for 4–6 h in 2×YPAD, before harvesting the cells by centrifugation at 700 g for 5 min. The cells were washed with H2O, then 0.1 M LiOAc, before resuspending in 0.1 M LiOAc with 15% glycerol. The competent cells were then aliquoted and stored at −80°C until transformation. For double transformation with bait and prey plasmids, competent cells were thawed on ice, and mixed with transformation mix (240 μl 50% PEG-3350, 35 μl 1 M LiOAc and 25 μl 2 mg/ml ssDNA per transformation) and 200 ng of each plasmid, before being exposed to a 42°C heat shock in a water bath for 45 min. The cells were then chilled on ice for a few minutes, sedimented by centrifugation (3000 g, 1 min), resuspended in sterile H2O, plated on SD-LW plates and grown at 30°C for 2–3 days.
(§2) For drop tests, cells from three individual colonies of each bait/prey combination were grown overnight in liquid SD-LW media. Next day, culture densities were normalized to OD600 = 0.05, dilution series (OD600 = 0.05, OD600 = 0.005, OD600 = 0.0005 and OD600 = 0.00005) were spotted on square plates (SD-LW, SD-AHLW and SD-AHLW+Rapa) and grown for 2 days at 30°C before taking pictures.
(§3) To identify interaction sites mediating specific MYB–MYC complex formation, we selected two TFs from each family. These were MYB28 and MYB29 from MYB subgroup 12, and two of their partner bHLH TFs, MYC3 and MYC4. To define the region mediating the interactions we applied a chemically inducible dimerization split-ubiquitin system ([35]). […] This is used as an in-built positive control for correct expression and functionality of the prey fusion protein and thereby reduces the incidence of false negatives.

[3] = system: MYC3; assay: Split-ubiquitin assay, MYC3 as bait; type: cell-based, Arabidopsis thaliana; conditions: yeast, SD-AHLW growth
Description: as §1, §2, §3

[4] = system: MYC4; assay: Split-ubiquitin assay, MYC4 as bait; type: cell-based, Arabidopsis thaliana; conditions: yeast, SD-AHLW growth
Description: as §1, §2, §3

Molecule	binding of MYC4Nt to immobilised peptide (in words) [1]	interaction with MYC3 (in words) [3]	interaction with MYC4 (in words) [4]	also measured
CSCC[C@H](NC(=O)[C@H](CO)NC(=O)[C@H](CO)NC(=O)[C@H](C)NC(=O)[C@H](CCCNC(=N)N)NC(=O)[C@H](C)NC(=O)[C@H](C)NC(=O)[C@@H](NC(=O)[C@H](CCCCN)NC(=O)[C@H](CC(N)=O)NC(=O)[C@@H](NC(=O)[C@H](CC(C)C)NC(=O)[C@H](CCCCN)NC(=O)[C@H](CO)NC(=O)[C@@H](NC(=O)[C@H](CO)NC(=O)[C@H](CO)NC(=O)[C@H](CO)NC(=O)[C@H](CCCNC(=N)N)NC(=O)[C@H](CCCCN)NC(=O)[C@H](Cc1ccccc1)NC(=O)CCCC[C@@H]1SC[C@@H]2NC(=O)N[C@@H]21)[C@@H](C)O)C(C)C)C(C)C)C(=O)NCC(=O)O [L190V-MIM] (Biotin-FKRSSSTSKLVNKVAARASSMG-OH)	a strong binding signal, but at higher concentrations of MYC4Nt (>10 μM), than was necessary for the WT-MIM			affinity for MYC4Nt weaker than WT-MIM peptide ([1]; estimated, relative to WT-MIM peptide): ~10 fold
CSCC[C@H](NC(=O)[C@H](CO)NC(=O)[C@H](CO)NC(=O)[C@H](C)NC(=O)[C@H](CCCNC(=N)N)NC(=O)[C@H](C)NC(=O)[C@H](C)NC(=O)[C@@H](NC(=O)[C@H](CCCCN)NC(=O)[C@H](CC(N)=O)NC(=O)[C@H](CC(C)C)NC(=O)[C@H](CC(C)C)NC(=O)[C@H](CCCCN)NC(=O)[C@H](CO)NC(=O)[C@@H](NC(=O)[C@H](CO)NC(=O)[C@H](CO)NC(=O)[C@H](CO)NC(=O)[C@H](CCCNC(=N)N)NC(=O)[C@H](CCCCN)NC(=O)[C@H](Cc1ccccc1)NC(=O)CCCC[C@@H]1SC[C@@H]2NC(=O)N[C@@H]21)[C@@H](C)O)C(C)C)C(=O)NCC(=O)O [WT-MIM] (Biotin-FKRSSSTSKLLNKVAARASSMG-OH)	binding of MYC4Nt was observed even at sub micro molar concentrations; also recorded: stronger binding of the WT-MIM peptide compared to that of the L190V-MIM peptide			
L190A-MIM: N-terminally biotinylated 22-residue peptide comprising the L190A MIM sequence of MYB29 (F180-G201) (Biotin-FKRSSSTSKLANKVAARASSMG)	Fit cannot converge; also recorded: an extremely weak response was seen only at high (>100 μM) concentrations of MYC4Nt; also recorded: the fit did not converge; also recorded: unable to detect binding			
B1				interaction with GL3 (in words) [2]: results in growth on SD-AHLW plates
B2		abolished the interaction	abolished the interaction	
B3		abolished the interaction with both MYC3 and MYC4	abolished the interaction with both MYC3 and MYC4	
B4		abolished the interaction	abolished the interaction	
B5		did not abolish the interaction	did not abolish the interaction	
B6		interacted with both MYC3 and MYC4	interacted with both MYC3 and MYC4	
